For assay [1], the target named is Cetuximab (anti-EGFR), full-length IgG. In words: cross-linking.
Assay [2] concerns the target Trastuzumab (anti-Her2/neu), full-length IgG. In words: cross-linking.

The results in this text go back to PMC9104846.

“photoreactive antibody-binding domain fused to SpyTag (designed binder)” came in with a maximum percentage of IgG conjugated to a single pAbBD-SC/ST in assay [1] of 40%.
Consider “pAbBD-(GGS)7-SC-(GGS)4-pAbBD (designed binder)”, for which the percent of IgG labeled with a single SpyCatcher/SpyTag in assay [1] and in assay [2] was greater than 70% each time.
Consider “pAbBD-(GGS)7-ST-(GGS)4-pAbBD (designed binder)”, for which the percent of IgG labeled with a single SpyCatcher/SpyTag in assay [1] and in assay [2] was greater than 70% throughout.
With “pAbBD-(GGS)7-SC-(GGS)7-pAbBD (designed binder)”, the percent of IgG labeled with a single SpyCatcher/SpyTag in assay [1] and in assay [2] was greater than 70% in each case.
On to “pAbBD-(GGS)7-ST-(GGS)7-pAbBD (designed binder)”, for which the percent of IgG labeled with a single SpyCatcher/SpyTag in assay [1] and in assay [2] was greater than 70% each time.
For the substance “photoreactive antibody-binding domain fused to SpyCatcher (designed binder)”, the maximum percentage of IgG conjugated to a single pAbBD-SC/ST in assay [2] came out at 40%.
